Measured values published in paper PMC6233222, “Structure and oligomerization of the periplasmic domain of GspL from the type II secretion system of Pseudomonas aeruginosa” (Scientific Reports, 2018).

Tests used:
[1] = target: the molecule itself; test: crystal structure; crystal form 1, space group I4(1)22, 2.5 Å; dimer generated by a crystallographic 2-fold axis; sample from the LEP, sitting drop vapor diffusion at 20 °C
[2] = target: the molecule itself; test: SEC-SAXS; early elution peak of GspL^peri, 9.0 mg/ml injected; Bio SEC-3 column, SWING beamline
[3] = target: the molecule itself; test: SEC-SAXS; late elution peak of GspL^peri, 13.7 mg/ml injected; Bio SEC-3 column, SWING beamline
[4] = target: the molecule itself; test: SEC-MALLS; early elution peak (EEP) of GspL^peri, one hour after purification and after concentration; Superdex 200 increase in 50 mM TRIS pH 7.5, 100 mM NaCl; tetramer converts irreversibly into dimers
[5] = target: the molecule itself; test: SEC-MALLS; GspL^fld made by incubation of GspL^peri in crystallization conditions over 48 hours and purified by SEC (absorbance at 220 nm)

B1: GspL^fld, the crystallized proteolytic product of GspL^peri (ferredoxin-like domain of GspL) (domain or fragment)
chain: RAQFDQHLADSASSGGEGQLLGLLGQAATVIGGEPTVSVEQLDFSAARGDVALQVRAPGFDVLERLRSRLSESGLAVQLGSASRDGSTVSARLVIGG
notes: GspL (XcpY), P. aeruginosa PAO1; proteolytic product of the construct 261-382 with the new N-terminus at residue 286 (Edman degradation); the C-terminal limit 382 is that of the parent construct; The protease is not identified; the N-terminal Strep-tag is lost with the N-terminal part of the MPD; also called Gsp^fld; crystal form 1; source: E. coli BL21 (DE3), purified GspL^peri (late elution …)
B1 was tested, and the “stoichiometry N” value [1] was 2.

B2: GspL^peri, the complete periplasmic segment of general secretory pathway protein L (GspL) from Pseudomonas aeruginosa (domain or fragment)
chain: GDRYAAQSAELYRQLFPEDRKLINLRAQFDQHLADSASSGGEGQLLGLLGQAATVIGGEPTVSVEQLDFSAARGDVALQVRAPGFDVLERLRSRLSESGLAVQLGSASRDGSTVSARLVIGG
notes: membrane proximal domain (MPD), short linker and ferredoxin-like domain (FLD); calculated mass of the construct 13.95 kDa; No step that removes the tag is described; also called XcpY (periplasmic segment); EEP and LEP material; source: E. coli BL21 (DE3), purified (Strep-tactin, SEC on Superdex 75); not shown: Strep-tag, N-terminal, kept
With B2 the “stoichiometry N” value [2] was 4, the “stoichiometry N” value [3] was 2 and the “tetramer to dimer ratio of peak areas, higher concentration” value [4] was 0.57. For the same protein, the “tetramer to dimer ratio of peak areas, lower concentration” value [4] was 0.7.

B3: GspL^fld purified from GspL^peri that was incubated in crystallization conditions over 48 hours (domain or fragment)
chain: DSASSGGEGQLLGLLGQAATVIGGEPTVSVEQLDFSAARGDVALQVRAPGFDVLERLRSRLSESGLAVQLGSASRDGSTVSARLVIGG
notes: GspL (XcpY), P. aeruginosa PAO1; mixture of two proteolytic variants of the construct 261-382 that start at residues 286 and 295 (Edman degradation), the shorter one (from 295) predominant; the C-terminal limit 382 is that of the parent construct; The sample is a mixture of 295-382 (predominant) and 286-382; also called GspL^fld (in solution); 10 kDa band; source: E. coli BL21 (DE3), purified …
B3 was tested, and the “stoichiometry N” value [5] was 2.
